Measurements reported in patent US20140017242A1, “ANTI-BRADYKININ B2 RECEPTOR (BKB2R) MONOCLONAL ANTIBODY” (Diamedica, Inc., priority 2010, published 2014).
Several values for one entry are separate records, joined by “and”; a condition that tells them apart may be missing. Identical values can stand only once.

Columns and labels:
[1] = tested on: ZDF fa/fa rats; assay: 21-day ZDF fa/fa study: urinary glucose (glycosuria); type: in vivo, rat; settings: day 14
[2] = tested on: influenza strain A/Brisbane/07 (H1N1); type: cell-based, influenza virus
[3] = tested on: ZDF fa/fa rats; assay: 21-day ZDF fa/fa study: glycated hemoglobin HbA1c; type: in vivo, rat; settings: day 21
Procedure: Animals. Male ZDF fa/fa rats were obtained from CRL (Kingston, N.Y.). Upon arrival, rats were seven weeks of age. The rats were housed individually per cage in a room with a photo cycle of 12 hours of light and 12 hours of dark and an ambient temperature of 70-72° F. and fed on regular rodent diet and water ad libitum. At the age of eleven weeks, rats were divided into six groups (Table 5) of eight rats per group based on fasting blood glucose levels. A sub-group of four rats per group was maintained in parallel to the main groups and was dosed similarly for twenty-one days for a hyperinsulinemic-euglycemic clamp study. […]
An oral glucose tolerance test (OGTT) was performed on Day 0, 7, 14 and 21 for each group of the study. Plasma samples were collected at each time point during OGTT to also measure insulin levels. Body weight, food and water intake were measured twice a week. Blood pressure and heart rates were monitored on Day 0, 7, 14 and 21 using a non-invasive tail cuff method (with five readings per rat taken and then averaged). Fasting serum samples were collected on Day 0, 7, 14 and 21 before OGTT for determination of triglyceride and total cholesterol level. Urine samples were collected on Day 7 and 14 for the determination of glycosuria. Glycated (Glycosylated) hemoglobin (HbA1c) was measured at the end of the study. Assay kits for these studies were as presented in Table 6, and were used according to the suppliers' instructions.
The mean change in fasting blood glucose (mg/dL), serum cholesterol (mg/dL) and systolic blood pressure (mm Hg) from baseline ([…]) and negative control (MG2b-57, 0.2 mg/kg) groups using an analysis of covariance to adjust for baseline levels. […] A significance level of a=0.05 was used for all tests, and all analyses were conducted using SAS statistical software (vs. 9.2, Cary, N.C., U.S.A.).

[4] = tested on: Wistar rats; assay: Acute effects on blood pressure in anesthetized Wistar rats; type: in vivo, rat; settings: single dose 0.5 mg/kg IV
Procedure: Male Wistar rats (Charles River Laboratories, Boston, Mass.) were 7.0 to 7.6 weeks old, weighed an average of 245 grams, and were maintained on Purina 5001 rat chow ad libitum. Following one week of laboratory acclimatization, treatments femoral catheter surgery and drug administration were conducted within a one-day period with measurements commencing the same day and continued during an ongoing three-week follow-up period. Treatment groups were (1) 3H3H3 (anti-BKB2R) antibody (n=8), (2) 3H3H9 (anti-BKB2R) antibody (n=8), (3) 1F2G7 (anti-BKB2R) antibody, (n=3), (4) 5F12G1 (anti-BKB2R) antibody (n=8).
Rats were anesthetized with ketamine (30 mg/kg, IM) and Inactin (50 mg/kg, IP). Cannulae were implanted in the femoral artery for blood pressure measurements and in the femoral vein for drug administration. Arterial line was filled with saline with 10 UI/ml of heparin to keep the line patent over the experiment and avoid frequent flushing of the arterial line. After 15-20 minutes of equilibration period, and once the blood pressure was stable, a baseline blood pressure was recorded for 15 minutes; then, drugs were administered and its effects on blood pressure assessed. For the antibodies a single dose (0.5 mg/kg) was administered and blood pressure recorded for three hours. All drugs were diluted in saline or PBS to achieve a total volume of 1 ml/kg. Drugs were slowly administered, on a 40-sec period on average. Animals were kept at 37° C. during the experiment. At the end of the experiments, animals were euthanized and no blood or tissues were collected.
Baseline blood pressure, length of blood pressure response to drug, maximum blood pressure change and Area Under the Curve (AUC) for the blood pressure response. Blood pressure at 1, 2 and 3 h after infusion for the antibodies.

B1: 5F12G1: murine monoclonal anti-BKB2R antibody (IgG2b,κ), VH comprising SEQ ID NO:1, VL comprising SEQ ID NO:2 (antibody, listed as Mus musculus, V domains shown)
VH: EVKLEESGGGLVQPGGSMKLSCVVSGFTFSDYWMSWVRHSPEMGLEWVAEIRLKSDNYATHYAESVKGRFTISRDDSKSRLYLQINSLRGEDTGIYYCTRDYYAMEYWGQGTSVTVSS
VL: DVVMTQTPLSLPVSLGDQASISCRSSQTIVHSNGKTYLEWYLQKPGQSPKLLIYKVSNRFSGVPDRFSGSGSGTEFTLKISRVETEDLGVYYCFQASHVPYTFGGGTKLEIK
[1]; 0.008 mg/kg s.c. every 3 days
  urine glucose level: 54 ± 11 mg/dL
[1]; 0.04 mg/kg s.c. every 3 days
  urine glucose level: 49 ± 6 mg/dL
[1]; 0.2 mg/kg s.c. every 3 days
  urine glucose level: 31 ± 2 mg/dL
[2]
  +/− Result FAM: Positive
[2]; A549 cells, qRT-PCR, FIGS. 5 to 8
  dose dependence of the reduction of viral titer / viral genomic copies: decreased viral titer in a dose-dependent manner
[2]; highest tested concentration of 100 μg/ml
  reduction in viral titer: 100 fold
[2]; listed as G1
  Ct FAM: 36.21 and 30.38 and 35.93 and 30.08 and 37.95 and 32.97 and 34.96 and 34.02
[3]; 0.2 mg/kg s.c. every 3 days (high dose)
  percent glycosylated hemoglobin A1c (HbA1c): 6.3+/−0.5%
[3]; 0.2 mg/kg s.c. every 3 days vs MG2b-57 0.2 mg/kg
  difference in percent HbA1c between the high dose and negative control animals: −2.58+/−0.85%
[4]
  Peak Blood Pressure Response (mm HG): 57 +/− 4 mm HG
[4]; until blood pressure returned to baseline
  Length (sec) of Blood Pressure Response: 168 ± 29 s
[4]; baseline 109±3 mm Hg
  blood pressure at one hour after administration: 95±3 mm Hg
  blood pressure at three hours after administration: 95±3 mm Hg
  blood pressure at two hours after administration: 94±3 mm Hg
